# Test results reported in US20090068110A1, “ANTIBODIES TO INSULIN-LIKE GROWTH FACTOR RECEPTOR” (Genentech, Inc., priority 2006, published 2009).
# Residue numbers refer to the chain shown, from its start.
# B1: chimeric 10H5: human chimeric version of murine 10H5, human IgG1 (antibody, V domains shown)
# VH: QVQLQQPGAELVKPGASVTLSCKASGYTFTRFWIHWVKQRPGQGLEWIGEINPSNGRTNYNENFKNKATLTVDTSSSTAYMQLSSLTSEVSVVYYCARGGRLDQWGQGTT
# VL: DIVMTQSQKFMSTSLGDRVSVTCKASQNVGSNVAWYQQKPGQSPEALIYSASYRYSGVPDRFTGSGSGTDFTLTISNVQSEDLAEYFCHQYNNYPYTFGGGTKVEIKR
# B2: chimeric 9F2-IgG (antibody, V domains shown)
# VH: QIQLVQSGPELKKPGETVKISCKASGYTLANYGMNWVKQAPGKGFKWMGWINTNTGKPTYSDEFKGRFVFSLETSASTAYLLINNLSNEDTATYFCARSIYYYGSRYFNVWGAGTT
# VL: DIQMTQSTSSLSASLGDRVTISCRASQDINNYLTWYQQKPDGTVKLLIYYTSRLHSGVPSRFSGSGSGTDYSLTITNLEQEDFATYFCQQGNTLPWTFGEGTKVEIKR
# notes: also called human chimeric 9F2
# B3: chimeric 9F2: human chimeric version of murine 9F2, human IgG1 (antibody, V domains shown)
# VH: B2 VH
# VL: B2 VL
# B4: 2B4: mouse monoclonal anti-IGF-1R antibody from hybridoma 2B4.2.8, ATCC PTA-7009 (antibody, V domains shown)
# VH: QIQLVQSGPELKKPGETVKISCKASGYNLANYGLNWVKQAPGEGLKWMGWINTNTGAPTYAEEFKGRFVFFLETSASTAYLQINNLSDEDTATYFCARSIYYYASRYFNVWGAGTS
# VL: B2 VL with S7T, R18K, N30S, T34N, V44I, V58I, T76S, F83I, E100G
# Legend:
# cynomolgus-monkey IGF-1R [1] = test: BIACORE surface-plasmon resonance, cynomolgus-monkey IGF-1R; type: binding; conditions: IgG, FIG. 15
# Protocol: Binding affinities of selected antibodies to IGF-1R were determined by surface plasmon resonance measurements on a BIACORE™ 3000 instrument (BIAcore, Inc.). Human, murine, or cynomolgus-monkey IGF-1R was immobilized at a density of about 500 RU on the flow cells of a PIONEER™ CM5 sensor chip. Immobilization was achieved by random coupling through amino groups using a protocol provided by the manufacturer. Sensorgrams were recorded for binding of anti-IGF-1R Fab or IgG to these surfaces by injection of a series of solutions ranging from 500 nM to 3.1 nM and 250 nM to 0.78 nM in two-fold increments, respectively. The signal from the reference cell was subtracted from the observed sensorgram. Kinetic constants were calculated by non-linear regression analysis of the data according to a 1:1 Languir binding model using software supplied by the manufacturer.
# IGF-1R [2] = target: T1, IGF-1R (Homo sapiens, UniProt P08069); test: antibody-induced IGF-1R down-regulation in MCF7 cells, Western blotting; type: cell-based; parameters: IGF-1R is normally localized at the plasma membrane of MCF7 cells; endogenous in cells; host or cells: MCF7; conditions: 10 μg/ml, 1, 4, 8 or 24 hours, 10% serum
# Protocol: Further exploration of the mechanism of action of anti-IGF-1R antibodies was carried out by testing the ability of the antibodies of the invention, particularly human chimeric antibodies of 2B4, 9F2, 10H5, as well as human phage antibody YW95.6, to induce IGF-1R down-regulation. MCF7 cells were treated with various antibodies (10 μg/ml) for 1, 4, 8, or 24 hours in the presence of 10% serum-containing medium. The cell lysates were harvested, separated by SDS-PAGE, and analyzed for IGF-1R levels by Western blotting using an anti-IGF-1R beta-chain antibody (Cell Signaling Technology, Inc.; Beverly, Mass., USA) or anti-beta-actin antibody.
# In a separate experiment, MCF7 cells were treated with serially diluted h10H5, and the cell lysates were analyzed for IGF-1R and IR levels using anti-IGF-1R and anti-IR β-chain antibodies at 1, 2, 4, and 8 hours post-continuous treatment.
# MCF7 cells = test: cell viability assay ([…]-GLO), MCF7; type: cell-based, human; conditions: in the presence of IGF-I
# Protocol: The different cell lines were cultured in their respective culture media at 37° C. in a humidified atmosphere of 5% CO2. Subsequently, cells were detached from tissue-culture flasks using the cell-dissociation solution, TRIPLE SELECT™ solution (InVitrogen, Carlsbad, Calif., USA), and centrifuged at 1000 rpm for five minutes. Detached cells were washed once with PBS, counted, and seeded in 96-well plates (Corning, N.Y., USA) at 2000 cells per well in 100 μL of culture media. After an overnight incubation at 37° C. in a humidified atmosphere of 5% CO2, the cell-culture medium was replaced with 50 μL of starvation medium consisting of serum-free RPMI 1640™ medium without phenol red. The cells were then starved for five hours in the incubator before addition of 25 μL of each anti-IGF-1R monoclonal antibody at various dilutions in serum-free RPMI 1640™ phenol red-free media. Later, 25 μL of phenol red-free RPMI 1640™ media supplemented with 4% of fetal bovine serum (FBS) (Sigma) with or without 4 ng/ml of human recombinant IGF-I were added on top of the 50 μL of antibody. The cells were then placed at 37° C. with 5% CO2 for 5 to 6 days. At the end of the assay, cell viability was measured using the […]-GLO® kit according to the manufacturer's instructions (Promega, Madison, Wis., USA).
# For the cell viability assay, MCF7 cells were seeded onto 96-well plates at 2000 cells/well and incubated overnight at 37° C. in a humidified atmosphere of 5% CO2/95% air in RPMI 1640™ medium supplemented with 10% FBS (Sigma, St. Louis, Mo.) and 1% GLUTAMAX™ reagent (Promega, Madison, Wis.). The next day cells were starved in serum-free RPMI 1640™ medium (phenol red-free) for five hours followed by addition of serially diluted human chimeric versions of 9F2, 2B4, and 10H5, as well as h10H5.vX, for one hour. Subsequently, phenol red-free PRMI 1640™ medium supplemented with FBS or IGF-I was added to reach a final concentration of 1% FBS and 1 ng/mL IGF-I. Cells were then incubated with continuous IGF-1R antibody exposure. After five days, the cell viability was then determined using a […]-GLO™ kit (Promega, Madison, Wis.) according to the manufacturer's instructions.
# cynomolgus-monkey IGF-1R [3] = target: cynomolgus-monkey IGF-1R (cynomolgus monkey, UniProt G7P9I7 31-908); test: BIACORE surface plasmon resonance: IGF-1R immobilized on CM5 chip (about 500 RU), IgG injected 250-0.78 nM, 25 C, 1:1 Langmuir model (apparent affinity)
# [4] = test system: IGF-1R signaling (phospho-IGF-1R, AKT, ERK1/2); test: Western blotting of IGF-1R signaling in MCF7 cells; type: cell-based, human
# Protocol: Also examined was the effect of these antibodies on ligand-dependent IGF-1R signaling by directly analyzing IGF-1R phosphorylation as well as major downstream pathways, such as AKT and MAPK activation. In this assay, MCF7 cells were grown in 6-well plates and serum was withdrawn for 16 hours. […] The cells were directly lysed in SDS sample buffer, and the lysate was analyzed by Western blotting using antibodies against IGF-1R, phospho-IGF-1R, AKT, phospho-AKT, ERK1/2, phospho-ERK1/2 (also called MAPK1/2 and phospho-MAPK1/2) (all from Cell Signaling Technology, Inc.; Beverly, Mass., USA).
# For the IGF-1R signaling pathway analysis, MCF7 cells were grown in six-well plates for 24 hours and then serum starved (serum-free and phenol-free RPMI medium supplemented with 1 mg/mL BSA) overnight. The cells were first incubated with h10H5 for 20 minutes, then stimulated with 50 ng/mL IGF-1 or 100 ng/mL IGF-11 for ten minutes. Cells were directly lysed in SDS sample buffer to preserve protein phosphorylation. After brief sonication, the lysates were separated by SDS-PAGE and transferred to nitrocellulose membranes (Invitrogen; Carlsbad, Calif.), which were probed with anti-phospho-IGF-1R, AKT, and ERK1/2 antibodies. The same blots were then stripped using Stripping Buffer™ (Pierce Biotechnology; Rockford, Ill.) and re-probed with antibodies against total IGF-1R β, AKT, and ERK1/2.
# IGF-1R [5] = target: T1, IGF-1R; test: KIRA assay of IGF-1R phosphorylation in MCF7 cells; type: cell-based; parameters: IGF-1R is normally localized at the plasma membrane of MCF7 cells; endogenous in cells; host or cells: MCF7; conditions: IGF-I 10 ng/ml or IGF-II 50 ng/ml; ranking upon IGF-II stimulation
# Protocol: Also examined was whether the blocking activity of these antibodies was sufficient to interfere with receptor activation, which is measured by IGF-1R phosphorylation. A KIRA assay (kinase receptor activation) was utilized to perform quantitative analysis of IGF-1R phosphorylation in MCF7 cells. Anti-IGF-1R antibodies in serial dilutions (0.19 to 200 nM in medium) were added to MCF7 cells in 96-well plates for one hour. IGF-I (10 ng/ml) or IGF-11 (50 ng/ml) was subsequently added and incubated for ten minutes. The cells were lysed, and the resulting lysates were transferred to an ELISA plate, which was coated with IGF-1R-capturing antibody 3B7 (250 ng/well). After incubation for two hours, the cell lysate was removed, and the plates were washed. Phosphotyrosine-specific antibody 4G10 (Upstate, Charlottesville, Va., USA) was added to detect IGF-1R phosphorylation through TMB peroxidase substrate.
# human IGF-1R-ECD = target: T2, human IGF-1R-ECD (Homo sapiens, UniProt P08069); test: competitive ELISA, blocking of IGF-I/II and IGF-1R interaction; type: binding; conditions: antibody 100 nM to 0.0976 nM, biotinyl-IGF-I or IGF-II 60 ng/ml
# T2 construct: containing the extracellular domain (ECD, amino acids 1-902) tagged with 10 or 12 histidine residues at the carboxyl terminus; His10 or His12 (C); made in house; host or cells: CHO cells
# Protocol: To determine whether the anti-IGF-1R antibodies could block ligand/receptor interaction, competitive ELISA was utilized. Human IGF-1R-ECD was coated overnight at 4° C. at 1 μg/ml in a 96-well immunoplate (Nalge Nunc International, Rochester, N.Y., USA). The ELISA plate was washed with wash buffer (PBS, 0.05% TWEEN™ 20 surfactant, pH 7.4), and 150 μl/well of blocking buffer (PBS with 0.5% BSA) was added for one hour at room temperature with gentle agitation. Purified anti-IGF-1R antibodies were first subjected to a two-fold dilution from 100 nM to 0.0976 nM in assay buffer (PBS, 0.5% BSA and 0.05% TWEEN™ 20 surfactant, pH 7.4) and added to the immunoplate to incubate at room temperature for one hour. Biothinyl-IGF-I or IGF-II at 60 ng/ml concentrations (Cell Science, Canton, Mass., USA) was then added and incubated for another 30 minutes. The ELISA plate was washed three times, and 100 μl/well of streptavidin-HRP (GE Healthcare, Piscataway, N.J., USA) at a dilution of 1:6,000 was added for 20 minutes. Color development was conducted as described in conjunction with the direct ELISA. The selected anti-IGF-1R antibodies inhibited IGF-I or IGF-II binding to IGF-1R to various degrees (FIGS. 19A and 19B for IGF-I and IGF-II, respectively).
# cynomolgus-monkey IGF-1R (cynomolgus monkey, UniProt G7P9I7 31-908), sequence (G7P9I7 entry or part of it): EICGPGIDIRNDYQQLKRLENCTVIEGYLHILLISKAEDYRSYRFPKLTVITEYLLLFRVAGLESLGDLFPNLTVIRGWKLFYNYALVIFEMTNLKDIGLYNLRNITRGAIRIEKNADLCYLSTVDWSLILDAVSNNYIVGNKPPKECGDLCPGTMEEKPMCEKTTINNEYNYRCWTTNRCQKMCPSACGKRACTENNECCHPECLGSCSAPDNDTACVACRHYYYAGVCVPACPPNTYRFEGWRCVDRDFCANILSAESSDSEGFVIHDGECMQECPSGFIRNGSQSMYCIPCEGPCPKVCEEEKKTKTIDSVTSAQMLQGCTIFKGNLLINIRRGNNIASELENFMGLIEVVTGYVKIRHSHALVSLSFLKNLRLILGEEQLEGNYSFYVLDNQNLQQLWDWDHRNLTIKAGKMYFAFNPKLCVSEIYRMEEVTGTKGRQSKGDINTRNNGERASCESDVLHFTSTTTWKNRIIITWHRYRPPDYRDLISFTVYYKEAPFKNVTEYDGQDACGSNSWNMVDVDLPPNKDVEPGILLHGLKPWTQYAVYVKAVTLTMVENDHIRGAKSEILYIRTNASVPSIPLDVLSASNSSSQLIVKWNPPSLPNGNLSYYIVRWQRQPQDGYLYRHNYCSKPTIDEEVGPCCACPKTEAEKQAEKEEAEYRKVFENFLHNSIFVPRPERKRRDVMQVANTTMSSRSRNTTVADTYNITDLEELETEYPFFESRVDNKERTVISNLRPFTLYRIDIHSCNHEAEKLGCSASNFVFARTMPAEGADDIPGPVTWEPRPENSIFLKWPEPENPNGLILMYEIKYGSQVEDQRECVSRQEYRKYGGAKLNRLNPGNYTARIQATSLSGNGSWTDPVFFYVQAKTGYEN
Molecule,binding to human versus cyno IGF-1R (cynomolgus-monkey IGF-1R [1]),IGF-1R down-regulation (IGF-1R [2]),comparison of inhibitory effect on MCF7 proliferation / viability (MCF7 cells),further results
B1,comparable for human and cyno IGF-1R,rapidly down-regulated and reached maximal reduction by eight hours,equivalent at decreasing the MCF7 cell viability,–
B2,–,–,–,Kd (cynomolgus-monkey IGF-1R [3]): 0.17 nM
B3,comparable for human and cyno IGF-1R,rapidly down-regulated and reached maximal reduction by eight hours,equivalent at decreasing the MCF7 cell viability,–
B4,–,–,–,"inhibition of IGF-I-mediated AKT activation ([4]; serum-starved MCF7, IGF-I 50 ng/ml): potently prevented AKT activation; inhibition of IGF-II-mediated IGF-1R phosphorylation and downstream AKT and MAPK1/2 activation ([4]; serum-starved MCF7, IGF-II 100 ng/ml): remained as strong inhibitors; inhibition of IGF-I/II-mediated IGF-1R phosphorylation (KIRA) (IGF-1R [5]): most effective group; inhibition of IGF-I or IGF-II binding to IGF-1R (human IGF-1R-ECD): most potent group"
